Our source for the Kd values is paper PMC6461199.

The data set deals with TDP-43 N-RRM1-2 (UniProt Q13148 1-269). The data set can be described thus: BLI. (In BLI a coated tip is dipped into the sample, and binding shifts an interference pattern.)
Chain of TDP-43 N-RRM1-2 (Q13148 1-269): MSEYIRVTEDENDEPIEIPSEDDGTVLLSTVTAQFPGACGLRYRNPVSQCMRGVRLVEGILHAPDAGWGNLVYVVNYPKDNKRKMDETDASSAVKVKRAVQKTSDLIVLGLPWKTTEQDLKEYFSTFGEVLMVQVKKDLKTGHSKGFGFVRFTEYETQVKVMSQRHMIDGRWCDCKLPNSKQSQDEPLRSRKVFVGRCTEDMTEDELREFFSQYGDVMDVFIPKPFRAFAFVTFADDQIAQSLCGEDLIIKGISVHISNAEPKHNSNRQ

Usually Kd stands for the concentration at which binding is half-saturated. Read a high Kd as lower affinity. Regarding AAGUGUGGUAUA (ssRNA) [RNA12S2], binding was characterised by a dissociation constant (Kd) of 75 nM.

As to UAGAGUAUGAUG (ssRNA) [RNA12S1], the affinity, expressed as Kd, was 60 nM.

UUAUACCUACCA (ssRNA) [NegRNA12S1] gave a Kd of 1650 nM.

CUCACAUUAUCA (ssRNA) [NegRNA12S2] came in with a Kd of 1340 nM.

Molecule GUGUGAAUGAAU (ssRNA) [RNA12] came in with a Kd of 6.3 nM.

GUGUGAAUGAAUGUGUGAAUGAAUGUGUGAAUGAAU (ssRNA) [RNA36] yielded an equilibrium dissociation constant (Kd) of 22 nM.

AUUCAUUCACAC (ssRNA) [NegRNA12] came in with a dissociation constant (Kd) of 1900 nM.
